# Earlier results, collected in PMC5938170.
# Experiments:
# EGFR (Homo sapiens) = EGFR (Homo sapiens) (UniProt P00533)
# Met (Homo sapiens) = Met (Homo sapiens) (UniProt P08581)
# UniProt P08581, sequence (P08581 25-932): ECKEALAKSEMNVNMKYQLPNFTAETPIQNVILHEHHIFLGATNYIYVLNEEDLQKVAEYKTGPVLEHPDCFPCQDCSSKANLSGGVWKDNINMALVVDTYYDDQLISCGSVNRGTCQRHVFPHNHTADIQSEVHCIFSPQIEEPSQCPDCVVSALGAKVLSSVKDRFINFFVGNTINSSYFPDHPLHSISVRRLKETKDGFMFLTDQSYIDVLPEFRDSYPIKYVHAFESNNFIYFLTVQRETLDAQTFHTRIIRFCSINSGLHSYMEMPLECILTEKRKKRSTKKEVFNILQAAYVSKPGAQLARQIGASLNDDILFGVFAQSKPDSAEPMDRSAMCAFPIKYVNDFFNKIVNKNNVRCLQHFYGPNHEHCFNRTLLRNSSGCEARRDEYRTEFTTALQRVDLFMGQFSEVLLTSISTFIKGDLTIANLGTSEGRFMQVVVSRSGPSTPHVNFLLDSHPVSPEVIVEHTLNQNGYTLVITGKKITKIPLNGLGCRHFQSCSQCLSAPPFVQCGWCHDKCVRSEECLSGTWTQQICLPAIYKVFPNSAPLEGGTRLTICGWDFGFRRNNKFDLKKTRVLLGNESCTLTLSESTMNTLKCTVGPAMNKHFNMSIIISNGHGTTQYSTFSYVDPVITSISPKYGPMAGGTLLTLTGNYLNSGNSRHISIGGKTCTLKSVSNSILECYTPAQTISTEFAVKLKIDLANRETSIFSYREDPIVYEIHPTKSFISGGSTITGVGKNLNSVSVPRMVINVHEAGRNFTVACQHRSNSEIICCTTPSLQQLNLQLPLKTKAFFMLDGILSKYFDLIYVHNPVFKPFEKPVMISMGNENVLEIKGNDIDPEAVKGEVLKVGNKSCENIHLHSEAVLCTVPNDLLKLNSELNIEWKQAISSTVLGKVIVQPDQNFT
substance,measurement,setting,value
Decorin (from UniProt P07585),Kd,EGFR (Homo sapiens),75 nM
same,Kd,Met (Homo sapiens),2 nM
